Columns and labels:
[1] = molecular target: splitGFP(1-10); assay: cell-based or functional assay
[2] = molecular target: splitGFP(1-10); assay: in vitro splitGFP complementation, fluorescence; reference pAbBD-S11

fold-increase in median splitGFP fluorescence, flow cytometry 6 hours after electroporation into HEK293T splitGFP(1-10) cells [1] | fluorescence relative to pAbBD-S11 [2] | Substance
33.5 fold |  | pAbBD-S11
39.4 fold | 2 fold | Ritux-(pAbBD-S11)2 (antibody)

Source: patent US20230031853A1
